Results taken from PMC11153552, “Clock gene homologs lin-42 and kin-20 regulate circadian rhythms in C. elegans” (Scientific Reports, 2024).

Target: the molecule itself
Assay: crystal structure; hanging-drop vapor diffusion at 22 °C; LIN-42 41-315 at 4 mg/mL; reservoir 150 mM lithium sulfate, 1.5 M sodium potassium tartrate; molecular replacement with mouse PER2 PAS-B (PDB 3GDI)

B1: LIN-42 N-terminus residues 41-315 (domain or fragment, C. elegans)
chain: GAMDPEFNTWSSSSVEFLDDADDNRLLFTCTFTLPHGTVLSSATYADGFHEQYLTIGDNFLARLEPKGQSFILSAAAASVKQRIFARVTMPDGALRACELLCEFETDRAKITVLALRSAFSLQASHVSSNFHVFTFITKHSSTCALTHIDYASIPYLGLLPTDLIGKSLLAFVYSPDVHVVRQAHIDLHNSRGKIVKSIADLRLVAHNGSILRCQTEWSAYVNPWTRKMELVVARHRICSLPIGDSDVISSPPPGIQSNTLPPVMAKTFEDELRTIMNKPVP
notes: remnant left on the N-terminus of LIN-42 after TEV cleavage of the HisGβ1 tag; LIN-42 (PERIOD homolog), C. elegans, residues 41-315; Crystallised construct was 41-315; Density was poor for the putative N-terminal PAS domain (residues 41-146), so only the PAS-B dimer was modelled; also called protease-resistant core of the LIN-42 N-terminus; LIN-42 PAS-B dimer; source: E. coli Rosetta2 (DE3), …
B1: binds.
